Assay results: patent US20260116951A1 (DUCENTIS BIOTHERAPEUTICS, published 2026)

Key:
[1] = biological target: T1, Recombinant Human CD200R, His-tagged (Creative Biomart CD200R1-320H) (human, UniProt Q8TD46 27-266); assay: SPR
T1 construct: Bought; also called human CD200 receptor; not shown: His tag
T1 sequence (looked up): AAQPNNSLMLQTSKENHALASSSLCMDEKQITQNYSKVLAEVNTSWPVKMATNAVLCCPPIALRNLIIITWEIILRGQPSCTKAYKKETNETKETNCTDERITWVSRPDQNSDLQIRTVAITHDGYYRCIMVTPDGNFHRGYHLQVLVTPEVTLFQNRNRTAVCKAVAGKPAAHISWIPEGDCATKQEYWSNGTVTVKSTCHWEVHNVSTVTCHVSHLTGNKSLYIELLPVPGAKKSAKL
From the text: (§1) Curves obtained were fitted to 1:1 Langmuir binding model by setting Rmax and RI as local parameters. Rate equations using standard parameters (e.g. ligand concentration, time) were used for iterative curve fitting. […] Means of 2 experiments carried out on the same day are shown with standard deviation. Residue numbering for CD200 proteins refers to the pre-protein, containing a signal peptide which is cleaved during insertion into the endoplasmic reticulum.

[2] = biological target: T2, Human CD200R, full length, on transduced U937 cells (U937-CD200R) (human, UniProt Q8TD46 25-348); assay: cell-based or functional assay
T2 sequence (looked up): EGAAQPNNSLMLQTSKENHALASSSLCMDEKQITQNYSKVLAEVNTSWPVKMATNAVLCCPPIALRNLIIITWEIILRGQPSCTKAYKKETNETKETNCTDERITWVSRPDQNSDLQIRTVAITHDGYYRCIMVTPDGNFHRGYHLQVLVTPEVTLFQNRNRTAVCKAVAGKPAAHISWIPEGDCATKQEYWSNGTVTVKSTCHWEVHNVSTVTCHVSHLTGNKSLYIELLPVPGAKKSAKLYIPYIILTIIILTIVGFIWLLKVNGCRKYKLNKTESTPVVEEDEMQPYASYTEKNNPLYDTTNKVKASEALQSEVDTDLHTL

[3] = biological target: T1, Recombinant Human CD200R, His-tagged …; assay: SPR, CD200R flowed over immobilized CD200-Fc, 25 C, 1:1 fit
Description: (§2) For human CD200 constructs: anti-human Fc (GE Healthcare) was covalently immobilized on a BIAcore CM5 sensor chip (Cytiva, BR100530) by amine coupling using a Cytiva kit (BR100839) following the manufacturer's instructions, targeting immobilization of 8,000-11,000 RU. CD200-Fc proteins were diluted to 0.5 μg/mL to 4 μg/mL in running Buffer (1×HBS-EP+pH7.4 (Cytiva BR100669), HEPES Buffered Saline pH 7.4 containing 3 mM EDTA and 0.05% v/v Surfactant P20) and flowed for 25 to 100 seconds at 10 μL/min over the immobilized Anti-Human IgG Fc, with a stabilization time of 60 seconds. Between 35 and 250 RUs of CD200-Fc were captured, with higher RUs used for cynomolgus CD200R binding experiments. […] Analysis temperature was 25° C. This was followed by regeneration of the surface with 30-90 second pulse of 3M MgCl₂ flowed at […] flow rate followed by stabilization of the surface with 60 second flow of running buffer.
as §1

[4] = biological target: T1, Recombinant Human CD200R, His-tagged …; assay: SPR (BIAcore T200), CD200-Fc captured on anti-human Fc, CD200R flowed, 25 C, 1:1 fit, mean of two runs
Description: The experiments were performed on a GE Healthcare BIAcore T200. Human, cynomolgus and mouse CD200R proteins were purchased from Creative Biomart (CD200R1-320H, CD200R1-3483C, CD200R1-3280M). All measurements were performed in duplicate.
as §2
(§3) For mouse CD200 constructs, muCD200R-Fc (Creative Biomart CD200R1-458M) diluted to 1 μg/mL in running buffer was flowed over the immobilized Anti-Human IgG Fc, with CD200 monomers serially diluted and flowed over captured CD200R. Other details were as above. Data analysis: experimental sensorgrams were analyzed in BIAevaluation software (GE Healthcare). The curves obtained were fitted to 1:1 Langmuir binding model by setting Rmax and RI as local parameters. Rate equations using standard parameters (e.g. ligand concentration, time) were used for iterative curve fitting. Closeness of fit was determined by algorithms provided by the manufacturer in the BIAevaluation software, and data accepted if the Chi² value was less than 10% of Rₘₐₓ, and the U value was less than or equal to 15.

[5] = biological target: T1, Recombinant Human CD200R, His-tagged …; assay: SPR (BIAcore), DS-118 captured (0.5 ug/mL), HuCD200R1 flowed at 100 nM to 6.25 nM, 25 C, 1:1 Binding model, run 2
Description: as §2, §3

Human PBMCs = biological target: T3, Human PBMCs; assay: Flow cytometry, % binding on human PBMCs gated on live cells, 1 hour at 37 C, anti-human secondary antibody; the target protein on the cells is not named
T3 construct: No receptor was assigned; also called human PBMCs, gated on live cells
Description: PBMC cells were re-suspended with a density of 0.1 million cells per assay point, with 50 μL FACS buffer (1×PBS+2% FBS). Dilutions of huCD200-Fc in 50 μL were added, starting at 10 μg/mL with 3-fold dilutions up to 10 concentrations with FACS buffer, and incubated for 1-hour at 37° C. At the end of each time point, cells were collected and washed (addition of 200 μL FACS buffer and centrifugation at 1400 RPM). 10 μg/mL of anti-human secondary antibody (Abcam Ab98596) was added together with excess Fc block (Innovex Biosciences no. NB309), and incubated for 30 minutes at 4° C. Cells were washed post incubation and stained to check viability (1 μL dye per million cells per mL 1×PBS, ThermoFisher C34557A) for 20 minutes at 4° C. Cells were washed and fixed with Fixation buffer (100 μL per test, BD Sciences 554655) at 4° C. for 20 minutes. Post incubation, cells were washed and the pellet was re-suspended in FACS buffer (100 μL per test) for data acquisition on the flow cytometer.

EC50 (Human PBMCs): 0.29 µg/mL
B1: DS-118 (mutated human CD200-Fc fusion protein, K130Y, I131Y, IgG4 S228P Fc) (Fc fusion)
chain: QVQVVTQDEREQLYTPASLKCSLQNAQEALIVTWQKKKAVSPENMVTFSENHGVVIQPAYKDKINITQLGLQNSTITFWNITLEDEGCYMCLFNTFGFGYYSGTACLTVYVQPIVSLHYKFSEDHLNITCSATARPAPMVFWKVPRSGIENSTVTLSHPNGTTSVTSILHIKDPKNQVGKEVICQVLHLGTVTDFKQTVNKGPPCPPCPAPEFLGGPSVFLFPPKPKDTLMISRTPEVTCVVVDVSQEDPEVQFNWYVDGVEVHNAKTKPREEQFNSTYRVVSVLTVLHQDWLNGKEYKCKVSNKGLPSSIEKTISKAKGQPREPQVYTLPPSQEEMTKNQVSLTCLVKGFYPSDIAVEWESNGQPENNYKTTPPVLDSDGSFFLYSRLTVDKSRWQEGNVFSCSVMHEALHNHYTQKSLSLSLGK
notes: also called mutated CD200-Fc; mutant CD200-Fc
fold increase in affinity from wild type [1]: > 130 fold | inhibition of LPS stimulated IL-6 release from U937-CD200R cells, IC50 [2]: 0.01 µg/mL | T1/2 [3]: 37.9 min | Kd [4]: 1.3 nM | koff [4]: 0.000304 s⁻¹ | kon [4]: 231000 M⁻¹ s⁻¹ | Kd [5]: 1.42 nM | koff [5]: 0.000329 s⁻¹ | kon [5]: 232000 M⁻¹ s⁻¹
